Data published in publication PMC6994465, “Structural basis of proton-coupled potassium transport in the KUP family” (Nature Communications, 2020).

Target: the molecule itself
Test: cryo-EM structure; KimA in SMA lipid particles (SMALPs) at 1.1 mg/mL, 50 mM Tris pH 8, 100 mM KCl, with 50 uM cyclic di-AMP; C2 symmetry; 3.7 A

B1: KimA from Bacillus subtilis (natural protein)
chain: MYHSIKRFLIGKPLKSQAAGEQKLTKLKALAMLSSDALSSVAYGTEQILIILATISAAAFWYSIPIAVGVLILLLALILSYRQIIYAYPQGGGAYIVSKENLGEKPGLIAGGSLLVDYILTVAVSISAGTDAITSAFPALHDYHVPIAIFLVLVIMILNLRGLSESASILAYPVYLFVVALLVLIAVGLFKLMTGQIDQPAHHTSLGTPVAGITLFLLLKAFSSGCSALTGVEAISNAIPAFKNPPARNAARTLAMMGILLAILFSGITVLAYGYGTAPKPDETVVSQIASETFGRNVFYYVIQGVTSLILVLAANTGFSAFPQLAFNLARDQYMPRMFTVRGDRLGFSNGIIFLGFASIVLIILFGGQTEHLIPLYAVGVFIPFTLSQTGMCMKWIKQKPKGWIGKMLINSCGALISFMVLSILFVTKFNVVWPVLIFMPIVVLLFFAIKNHYTAVGEQLRIVDKEPEEIKGTVVIVPVAGVTTVVQKSIHYAKSLSDQVIAVHVSFDREQEKKFEKRWEELNNGVRLVTLHSSYRSLVHPFDKFLETVEAKAKKEQFSVMVLFPQFITKKRWHTILHNQSAFLLRVRLFWKKDIMVATLPYHFKK
notes: KimA, potassium importer of the KUP family, Bacillus subtilis; gene amplified from genomic DNA; Homodimer in the cryo-EM structure; The model holds 572 of 607 residues (it lacks the first 26 residues and residues 480-481, 534-538 and 607); Primers are in the Supplementary Methods; also called wild-type KimA; potassium importer KimA; source: E. coli LB2003, purified (membranes solubilised with SMA …)
stoichiometry N: 2
